Test results reported in article PMC3087300 (Bioorganic & medicinal chemistry, 2009).
Like-named read-outs stand apart in the source and are kept apart here.

Target: PSA (Homo sapiens, UniProt P07288)
Sequence (P07288 25-261): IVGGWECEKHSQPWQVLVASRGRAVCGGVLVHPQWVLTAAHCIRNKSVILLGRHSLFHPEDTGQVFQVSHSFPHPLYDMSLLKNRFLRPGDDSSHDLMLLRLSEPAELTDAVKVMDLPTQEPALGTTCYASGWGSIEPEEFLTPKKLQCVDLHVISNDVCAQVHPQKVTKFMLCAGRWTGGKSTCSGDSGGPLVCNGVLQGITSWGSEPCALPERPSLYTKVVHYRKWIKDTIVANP

With (Re) SAAC-SSQn(boro)L [Compound 47] the Ki (P2-P3 screen boronic acids and PSA imaging agents, Table 2) was 0.0284 ± 0.0021 µM and the Ki (read-out: Ki for PSA, boronic acid inhibitors) was 0.028 µM.
